Source: patent publication US6716574B2, “Osp-C derived peptide fragments” (Dako A/S, priority 1996, dated 2004)

What was measured:
Type in all cases: binding, human
[1] = tested on: IgM antibodies to OspC in sera from patients; assay: Indirect streptavidin ELISA for IgM antibodies against carboxy-terminal OspC deca-peptide (peptide ELISA)
Method: Indirect Streptavidin ELISA for IgM Antibodies against Carboxy-terminal OspC Deca-peptide (Peptide ELISA)
Flat-bottom microdilution plates (Maxisorb; Nunc, Roskilde, Denmark) were coated with 100 μl of streptavidin (ZYMED, S. Avidinii) 2.5 μg/ml in citrate buffer (pH 5) and incubated overnight at 4° C. The plates were washed four times a one minute with phosphate buffered saline (PBS) containing 0.5 M NaCl and 0.1% (vol/vol) Tween 20 (pH 7.2), 100 μl of the biotinylated synthetic peptide
(prodiluted in PBS containing 0.37 M NaCl, 0.5% (vol/vol) Tween 20, and 1% (wt/vol) milk powder (pH 7.0)) was added to the wells and the plates were incubated overnight at 4° C. The plates were washed four times a one minute with PBS containing 0.5 M NaCl and 0.1% (vol/vol) Tween 20 (pH 7.2), and 100 μl of test serum diluted 1:200 in PBS containing 0.7 M NaCl, 0.1% (vol/vol) Tween 20, and 1% (wt/vol) milkpowder (pH 7, 2) was added to the wells and incubated for 2 hours at 20° C. on a rocker platform. The plates were washed four times à one minute with PBS containing 0.5 M NaCl and 0.1% (vol/vol) Tween 20 (pH 7.2), and 100 μl of peroxidase conjugated rabbit anti-human IgM (code P215; Dako-patts, Copenhagen, Denmark) diluted 1:1000 in PBS containing 0.5% Tween 20 and 1% milkpowder (pH 7.4) was added to the wells and incubated for 1 h at 20° C. The plates were washed four times à one minute with PBS containing 0.5 M NaCl and 0.1% (vol/vol) Tween 20 (pH 7.2), and 200 μl of the substrate o-phenylenediamine (0.33 mg/ml; Kem-En-Tec, Denmark, tablets of 10 mg) in citrate buffer (pH 5) with 0.04% (vol/vol) H2O2 was added to each well. After 15 minutes protected from light, the enzymatic reaction was stopped by the addition of 50 μl of 3 M H2SO4. The optical density (OD) at 492 nm was read spectrophotometrically on an Immuno Reader, Easy reader EAR 400 AC, SLT Labinstruments, AUSTRIA. Samples were tested in duplicate and retested if the two OD values differed more than 10% from the mean. To eliminate plate-to-plate and day-to-day variations, a reference serum pool based on seven western blot positive sera were included on every plate for construction of a standard dilution curve with a two fold dilution ranging from 1:200 to 1:6400. The OD value of every sample was adjusted to this standard curve. Positive and negative control sera were included on every plate. The positive control sera were diluted 1:200, 1:400 and 1:800 on every plate to check for parallelism between the standard reference curve and the dilution curve of the positive control sera. […]

[2] = tested on: IgM antibodies to OspC in sera from patients; assay: Indirect ELISA for IgM antibodies to full-length and truncated recombinant OspC (rOspC ELISA); details: for Positive rOspCt ELISA results: B. garinii rOspCt; for diagnostic sensitivity for IgM: set of preliminary tests
Method: Indirect ELISA for IgM Antibodies to Full-length and Truncated Recombinant OspC (rOspC ELISA)
Flat-bottom microdilution plates (Maxisorb; Nunc, Roskilde, Denmark) were coated with 100 μl of rOspC diluted in 0.05 M bicarbonate pH 9.6 for 1 hour at 20° C. on a rocker platform and thereafter overnight at 4° C. The optimum coating concentration was defined as the antigen dilution resulting in the highest ratio of the optical density (OD) between a positive and a negative control serum (P/N ratio). The plates were washed four times à one minute with PBS containing 0.5 M NaCL, and 0.1% (vol/vol) Tween 20 (pH 7.2) and unspecific protein binding was blocked with 100 μl 3% (wt/vol) milk powder in PBS for 1 hour. The plates were washed four times à one minute with PBS containing 0.5 M NaCL, and 0.1% (vol/vol) Tween 20 (pH 7.2). 100 μl of serum diluted 1:200 in PBS containing 0.1% (vol/vol) Tween 20, 0.02% NaN3 and 1% (wt/vol) milk powder was added to the wells and incubated for 2 h at 20° C. The plates were washed four times à one minute with PBS containing 0.5 M NaCL, and 0.1% (vol/vol) Tween 20 (pH 7.2) and 100 μl peroxidase conjugated rabbit anti-human immunoglobulin M (IgM) (Dakopats, Copenhagen, Denmark, code P-215) diluted 1:1000 in PBS pH 7.4 with 0.05% (vol/vol) Tween 20 and 1% (wt/vol) milk powder. After the incubation for 1 h at 20° C. the plates were washed four times à one minute with PBS containing 0.5 M NaCL, and 0.1% (vol/vol) Tween 20 (pH 7.2) and 200 μl of the substrate o-phenylenediamine (0.41 mg/ml; Sigma) in citrate buffer (pH 5) with 0.04% (vol/vol) H2O2) was added to each well. After 15 minutes protected from light, the enzymatic reaction was stopped by the addition of 50 μl of 3M H2SO4. The optical density (OD) at 492 nm was read spectrophotometrically (Immuno Reader, Easy reader EAR 400 AC—SLT Labinstruments, AUSTRIA). Samples were tested in duplicate and retested, if the two OD values differed more than 10% from the mean. To eliminate plate-to-plate and day-to-day variations, a reference serum pool based on seven western blot positive sera were included on every plate for construction of a standard dilution curve with a two fold dilution ranging from 1:200 to 1:6400. The OD value of every sample was adjusted to this standard curve. Positive and negative control sera were included on every plate. The positive control sera were diluted 1:200, 1:400 and 1:800 on every plate to check for parallelism between the standard reference curve and the dilution curve of the positive control sera.
The diagnostic cutoff OD was adjusted to be 98% specific for an IgM assay on the basis of serum samples from 100 healthy danish blood donors, and was 0.230 for the IgM assay.
In a preliminary setup, rOspCt was used in the above-described rOspC ELISA. Sera from 47 patients with EM, 50 with NB, 30 with ACA and 29 with syphilis were tested against rOspCt.
The capability of an immunological agent according to the present invention to react with sera from patients in various stages of Lyme borreliosis was evaluated against that of recombinant OspC derived from B. garinii and against conventional flagellum ELISAs (performed as described in Hansen K. et al. (1991) and Hansen K. et al. (1988)). These flagellum assays (testing for IgM and IgG antibodies to native B. burgdorferi flagellum) are commercially available, a μ-capture ELISA (DAKO, Denmark code K006), and an indirect IgG ELISA (DAKO, Denmark code K416). Both assays use flagella purified from strain DK1 belonging to the genospecies of B. afzelii. The ELISAs were performed according to the instructions of the manufacturer, and the results were expressed as optical density (OD) values. In both assays the diagnostic cut-off level was adjusted to a specificity of 98% based on the examination of 100 blood donors.

[3] = tested on: IgG reactive with OspC in patient sera; assay: IgG rOspC ELISA combined with IgG flagellum ELISA
[4] = Early Lyme borreliosis (EM and NB) sera (n = 181), IgM

6-aminohexanoic acid-Pro-Val-Val-Ala-Glu-Ser-Pro-Lys-Lys-Pro [Peptide]
OD titer compared with the rOspCfl ELISA ([1]; EM and NB sera, IgM, FIGS. 1-4): significantly higher | frequency (%) of positive sera, Peptide ELISA ([1]; EM sera (n = 80), IgM, cutoff OD 0.460): n = 26 (32.5%) | Peptide IgM negative and Flagellum IgM negative ([1]; EM, n = 80): n = 44 (55.00%) | Peptide IgM negative and Flagellum IgM positive ([1]; EM, n = 80): n = 10 (12.50) | Peptide IgM positive and Flagellum IgM negative ([1]; EM, n = 80): n = 6 (7.50%) | Peptide IgM positive and Flagellum IgM positive ([1]; EM, n = 80): n = 20 (25.00%) | Peptide IgM negative ([1]; EM, n = 80, all sera): n = 54 (67.5%) | Peptide IgM positive ([1]; EM, n = 80, all sera): n = 26 (32.5%) | frequency (%) of positive sera, Peptide ELISA [1, 4]: n = 72 (39.8%) | frequency (%) of positive sera, Peptide ELISA ([1]; NB sera (n = 101), IgM): n = 46 (45.5%) | Decapeptide IgM negative and Flagellum IgM negative ([1]; NB, n = 101): n = 25 (24.75%) | Decapeptide IgM negative and Flagellum IgM positive ([1]; NB, n = 101): n = 30 (29.70%) | Decapeptide IgM positive and Flagellum IgM negative ([1]; NB, n = 101): n = 12 (11.88%) | Decapeptide IgM positive and Flagellum IgM positive ([1]; NB, n = 101): n = 33 (32.67%) | Decapeptide IgM negative ([1]; NB, n = 101, all sera): n = 55 (54.5%) | Decapeptide IgM positive ([1]; NB, n = 101, all sera): n = 46 (45.5%) | sensitivity of the peptide ELISA relative to the rOspCfl ELISA ([1]; detecting early Lyme borreliosis (stage 1 and 2)): approximately 86% | increase of overall sensitivity for IgM when adding peptide ELISA results to flagellum ELISA results ([1]; first stage (EM)): 7.5% | accuracy (ROC plot) compared with the rOspCfl ELISA ([1]; patients suffering from NB, FIG. 6): more accurate | increase of overall sensitivity for IgM when adding peptide ELISA results to flagellum ELISA results ([1]; second stage (NB)): 12%

B1: rOspCt: recombinant B. garinii OspC truncate which lacks the 7 carboxyterminal amino acids (protein)
chain: CNNSGGDSASTNPDESAKGPNLTVISKKITDSNAFLLAVKEVEALLSSIDELSKAIGKKIKNDGTLDNEANRNESLIAGAYEISKLITQKLSVLNSEELKEKIKEAKDCSEKFTTKLKDSHAELGIQSVQDDNAKKAILKTHGTKDKGAKELEELFKSLESLSKAAQAALTNSVKELTNPVVAESPKKP
modifications: left off: small tags and cut ends
notes: recombinant B. garinii OspC truncate which lacks the 7 carboxyterminal amino acids
Positive rOspCt ELISA results ([2]; ACA sera (N = 30), IgM): n = 0 (0.00%) | Positive rOspCt ELISA results ([2]; EM and NB sera (n = 97), IgM): n = 4 (4.12%) | Positive rOspCt ELISA results ([2]; EM sera (n = 47), serum panel 1, IgM, 98% specific cutoff): n = 1 (2.12%) | Positive rOspCt ELISA results ([2]; NB sera (n = 50), serum panel 1, IgM): n = 3 (6.00%) | Positive rOspCt ELISA results ([2]; Syphilis control sera (n = 29), IgM): n = 5 (17.24%)

B2: rOspCfl: full-length recombinant OspC from Borrelia garinii strain DK6 (SEQ ID NO: 3), six-His fusion protein (protein, listed as Borrelia garinii)
chain: MKKNTLSAILMTLFLFISCNNSGGDSASTNPDESAKGPNLTVISKKITDSNAFLLAVKEVEALLSSIDELSKAIGKKIKNDGTLDNEANRNESLIAGAYEISKLITQKLSVLNSEELKEKIKEAKDCSEKFTTKLKDSHAELGIQSVQDDNAKKAILKTHGTKDKGAKELEELFKSLESLSKAAQAALTNSVKELTNPVVAESPKKP
modifications: six-His tag
frequency (%) of positive sera, rOspCfl ELISA ([2]; EM sera (n = 80), IgM, B. garinii rOspCfl, cutoff OD 0.230): n = 45 (43.8%) | rOspCfl IgM negative and Flagellum IgM negative ([2]; EM, n = 80): n = 38 (47.50%) | rOspCfl IgM negative and Flagellum IgM positive ([2]; EM, n = 80): n = 7 (8.75%) | rOspCfl IgM positive and Flagellum IgM negative ([2]; EM, n = 80): n = 12 (15.00%) | rOspCfl IgM positive and Flagellum IgM positive ([2]; EM, n = 80): n = 23 (28.75%) | rOspCfl IgM negative ([2]; EM, n = 80, all sera): n = 45 (56.25%) | rOspCfl IgM positive ([2]; EM, n = 80, all sera): n = 35 (43.75%) | frequency (%) of positive sera, rOspCfl ELISA [2, 4]: n = 94 (46.4%) | frequency (%) of positive sera, rOspCfl ELISA ([2]; NB sera (n = 101), IgM, B. garinii rOspCfl): n = 49 (48.5%) | rOspCfl IgM negative and Flagellum IgM negative ([2]; NB, n = 101): n = 25 (24.75%) | rOspCfl IgM negative and Flagellum IgM positive ([2]; NB, n = 101): n = 26 (25.74%) | rOspCfl IgM positive and Flagellum IgM negative ([2]; NB, n = 101): n = 12 (11.88%) | rOspCfl IgM positive and Flagellum IgM positive ([2]; NB, n = 101): n = 37 (36.63%) | rOspCfl IgM negative ([2]; NB, n = 101, all sera): n = 52 (51.5%) | rOspCfl IgM positive ([2]; NB, n = 101, all sera): n = 49 (48.5%) | increase of overall diagnostic sensitivity for IgM when adding rOspCfl ELISA results to flagellum ELISA results ([2]; first stage of Lyme borreliosis (EM)): 15% | diagnostic sensitivity for IgM ([2]; first stage of Lyme borreliosis): 44% | increase of overall diagnostic sensitivity for IgM when adding rOspCfl ELISA results to flagellum ELISA results ([2]; second stage of Lyme borreliosis (NB)): 12% | diagnostic sensitivity for IgM ([2]; second stage of Lyme borreliosis): 48% | improvement on adding IgG rOspC ELISA results to IgG flagellum ELISA results [3]: no significant improvement
